This passage reports Kd results from paper PMC1410913 (Nucleic Acids Research, 2006).

B1: wild-type FokI restriction endonuclease (enzyme, UniProt P14870 1-579, looked up)
chain: MVSKIRTFGWVQNPGKFENLKRVVQVFDRNSKVHNEVKNIKIPTLVKESKIQKELVAIMNQHDLIYTYKELVGTGTSIRSEAPCDAIIQATIADQGNKKGYIDNWSSDGFLRWAHALGFIEYINKSDSFVITDVGLAYSKSADGSAIEKEILIEAISSYPPAIRILTLLEDGQHLTKFDLGKNLGFSGESGFTSLPEGILLDTLANAMPKDKGEIRNNWEGSSDKYARMIGGWLDKLGLVKQGKKEFIIPTLGKPDNKEFISHAFKITGEGLKVLRRAKGSTKFTRVPKRVYWEMLATNLTDKEYVRTRRALILEILIKAGSLKIEQIQDNLKKLGFDEVIETIENDIKGLINTGIFIEIKGRFYQLKDHILQFVIPNRGVTKQLVKSELEEKKSELRHKLKYVPHEYIELIEIARNSTQDRILEMKVMEFFMKVYGYRGKHLGGSRKPDGAIYTVGSPIDYGVIVDTKAYSGGYNLPIGQADEMQRYVEENQTRNKHINPNEWWKVYPSSVTEFKFLFVSGHFKGNYKAQLTRLNHITNCNGAVLSVEELLIGGEMIKAGTLTLEEVRRKFNNGEINF

Series [1] deals with the molecule itself. In words: single-turnover enzyme kinetics.
The target of series [2] is B1. Put plainly: steady-state enzyme kinetics.

What is called Kd is the constant that tells how readily two partners part at equilibrium. Low values mean higher affinity, high ones lower affinity. With B1, the equilibrium dissociation constant (Kd) in series [1] came to 99 ± 19 nM.

B2: N13Y variant of the FokI endonuclease (enzyme, UniProt P14870 1-579, looked up)
chain: MVSKIRTFGWVQYPGKFENLKRVVQVFDRNSKVHNEVKNIKIPTLVKESKIQKELVAIMNQHDLIYTYKELVGTGTSIRSEAPCDAIIQATIADQGNKKGYIDNWSSDGFLRWAHALGFIEYINKSDSFVITDVGLAYSKSADGSAIEKEILIEAISSYPPAIRILTLLEDGQHLTKFDLGKNLGFSGESGFTSLPEGILLDTLANAMPKDKGEIRNNWEGSSDKYARMIGGWLDKLGLVKQGKKEFIIPTLGKPDNKEFISHAFKITGEGLKVLRRAKGSTKFTRVPKRVYWEMLATNLTDKEYVRTRRALILEILIKAGSLKIEQIQDNLKKLGFDEVIETIENDIKGLINTGIFIEIKGRFYQLKDHILQFVIPNRGVTKQLVKSELEEKKSELRHKLKYVPHEYIELIEIARNSTQDRILEMKVMEFFMKVYGYRGKHLGGSRKPDGAIYTVGSPIDYGVIVDTKAYSGGYNLPIGQADEMQRYVEENQTRNKHINPNEWWKVYPSSVTEFKFLFVSGHFKGNYKAQLTRLNHITNCNGAVLSVEELLIGGEMIKAGTLTLEEVRRKFNNGEINF
The molecule B2 gave an equilibrium dissociation constant (Kd) in series [2] of 166 ± 73 nM.
